Literature values, collected in PMC5896957.

Target: exon junction complex (Homo sapiens) (UniProt P38919)
UniProt P38919, sequence (P38919 2-411, chain 1 of 3): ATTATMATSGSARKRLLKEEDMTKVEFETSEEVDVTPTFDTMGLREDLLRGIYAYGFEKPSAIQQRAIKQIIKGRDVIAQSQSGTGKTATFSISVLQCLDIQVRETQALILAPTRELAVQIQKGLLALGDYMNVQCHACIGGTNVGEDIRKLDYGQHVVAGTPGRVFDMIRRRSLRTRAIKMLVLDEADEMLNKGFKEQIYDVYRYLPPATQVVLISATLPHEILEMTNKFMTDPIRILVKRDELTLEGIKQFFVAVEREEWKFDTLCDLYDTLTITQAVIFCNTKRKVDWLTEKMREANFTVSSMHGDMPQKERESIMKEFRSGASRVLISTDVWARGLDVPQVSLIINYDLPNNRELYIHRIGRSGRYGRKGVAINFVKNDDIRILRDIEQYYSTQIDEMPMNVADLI
UniProt P38919, sequence (B1ARP8 whole entry, chain 2 of 3, further chain): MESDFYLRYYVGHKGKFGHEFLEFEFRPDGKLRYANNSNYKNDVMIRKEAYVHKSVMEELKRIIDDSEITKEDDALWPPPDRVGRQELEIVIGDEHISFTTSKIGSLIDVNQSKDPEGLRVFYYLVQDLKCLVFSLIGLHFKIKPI
UniProt P38919, sequence (O15234 whole entry, chain 3 of 3, further chain): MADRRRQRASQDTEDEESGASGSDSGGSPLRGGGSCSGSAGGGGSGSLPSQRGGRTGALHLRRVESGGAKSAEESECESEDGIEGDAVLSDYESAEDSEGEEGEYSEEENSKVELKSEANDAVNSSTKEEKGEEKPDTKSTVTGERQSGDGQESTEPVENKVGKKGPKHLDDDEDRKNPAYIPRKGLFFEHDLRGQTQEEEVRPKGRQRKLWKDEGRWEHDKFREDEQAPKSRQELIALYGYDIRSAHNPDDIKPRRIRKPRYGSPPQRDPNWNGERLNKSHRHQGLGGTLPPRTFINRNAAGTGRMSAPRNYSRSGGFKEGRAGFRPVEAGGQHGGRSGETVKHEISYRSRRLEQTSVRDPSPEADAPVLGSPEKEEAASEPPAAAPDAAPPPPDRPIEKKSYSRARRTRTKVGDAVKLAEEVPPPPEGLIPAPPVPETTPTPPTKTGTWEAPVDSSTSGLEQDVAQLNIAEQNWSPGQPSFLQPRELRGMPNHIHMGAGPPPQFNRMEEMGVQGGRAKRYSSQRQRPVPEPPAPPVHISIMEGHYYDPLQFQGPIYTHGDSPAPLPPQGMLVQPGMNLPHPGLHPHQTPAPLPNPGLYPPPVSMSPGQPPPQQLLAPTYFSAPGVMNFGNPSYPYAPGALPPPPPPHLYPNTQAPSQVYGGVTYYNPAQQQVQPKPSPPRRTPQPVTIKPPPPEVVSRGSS

**Q.** For UPF3B peptide (from UniProt Q9BZI7), which Kd is on record?
**A.** 10 µM
